Measurements as given in article PMC3506534, “LL-37 Induces Polymerization and Bundling of Actin and Affects Actin Structure” (PLoS ONE, 2012).

Molecular target: rabbit skeletal muscle α-actin (rabbit, UniProt P68135 1-377)
Assay: SPR; BIACORE 3000; actin (10 µg/ml) amine-coupled to a CM5 chip, 1500-1800 RU; running buffer 10 mM HEPES pH 7.4, 150 mM NaCl, 0.005% tween 20; 25°C, 40 µl/min; LL-37 0-500 nM, 1:1 Langmuir model; sLL-37 0-2500 nM, steady state affinity model
Conditions: both partners purified

B1: scrambled LL-37 (peptide)
peptide: GLKLRFEFSKIKGEFLKTPEVRFRDIKLKDNRISVQR
notes: scrambled order of the residues of LL-37; same net number of positive charges; also called sLL-37; source: bought: Genemed Synthesis Inc; purified by HPLC, purity greater than 90%
  Kd: 138 µM
